Test system: RED STAR yeast
Experiment: Conventional simultaneous saccharification fermentation (SSF) of liquefied corn mash, ethanol yield by weight loss and HPLC
Assay type: cell-based
Settings: conventional SSF, 70 hours
Description: Liquefied corn mash was used to evaluate the effect of adding salicylic acid (SA) to a known enzyme dosage of
The performance of these enzymes was compared to controls without salicylic acid addition. The experimental set-up used is described in table below.
5.5 g of RED STAR™ yeast was rehydrated in 100 mL distilled water and incubated at 32° C. for 30 minutes prior to the beginning of fermentation. Approximately 50 million cells/g DS of yeast were added to each of the fermentations.
The corn mash was thawed to room temperature. Urea and Penicillin were added to a final concentration of […] and 3 mg/L respectively. Small-scale (˜4 g) fermentations were carried out in 15 mL polypropylene tubes with five replicates for each experimental condition. The tubes were prepared by drilling a 1/32 inch (1.5 mm) hole and the empty tubes were then weighed before liquefied corn mash was added. The tubes were weighed again after mash was added to determine the exact weight of mash in each tube. This weight was used to calculate the enzyme dosage necessary as follows:
Enzyme was added according to dosage described in table above and 100 μl of rehydrated yeast were added to each tube to begin fermentation. Fermentation progress was followed by weighing the tubes over time for approximately 70 hours. Tubes were vortexed briefly before each weighing. […]

B1: Aspergillus niger GA: Aspergillus niger G1 glucoamylase disclosed in Boel et al., 1984, EMBO J. 3 (5): 1097-1102 (protein, UniProt P69328 25-640, looked up)
Glucoamylase: ATLDSWLSNEATVARTAILNNIGADGAWVSGADSGIVVASPSTDNPDYFYTWTRDSGLVLKTLVDLFRNGDTSLLSTIENYISAQAIVQGISNPSGDLSSGAGLGEPKFNVDETAYTGSWGRPQRDGPALRATAMIGFGQWLLDNGYTSTATDIVWPLVRNDLSYVAQYWNQTGYDLWEEVNGSSFFTIAVQHRALVEGSAFATAVGSSCSWCDSQAPEILCYLQSFWTGSFILANFDSSRSGKDANTLLGSIHTFDPEAACDDSTFQPCSPRALANHKEVVDSFRSIYTLNDGLSDSEAVAVGRYPEDTYYNGNPWFLCTLAAAEQLYDALYQWDKQGSLEVTDVSLDFFKALYSDAATGTYSSSSSTYSSIVDAVKTFADGFVSIVETHAASNGSMSEQYDKSDGEQLSARDLTWSYAALLTANNRRNSVVPASWGETSASSVPGTCAATSAIGTYSSVTVTSWPSIVATGGTTTTATPTGSGSVTSTSKTTATASKTSTSTSSTSCTTPTAVAVTFDLTATTTYGENIYLVGSISQLGDWETSDGIALSADKYTSSDPLWYVTVTLPAGESFEYKFIRIESDDSVEWESDPNREYTVPQACGTSTATVTDTWR
Ethanol yield after 70 hours fermentation determined by HPLC, With SA (SA dose 5.0 mM/gDS): 117.67
Ethanol yield after 70 hours fermentation determined by HPLC, without SA (no SA): 113.74

From patent US20080145903A1, “PROCESSES OF PRODUCING FERMENTATION PRODUCTS” (priority 2006, published 2008)
